Experimental findings from article PMC12311110, “Mapping of endosomal proximity proteomes reveals Retromer as a hub for RAB GTPase regulation” (Nature Communications, 2025) are described below.

The target in the experiment is mVps29 (mouse (printed as mVps29), UniProt Q9QZ88 1-182). In words: crystal structure; hanging drop, 20 °C; 0.1 M Tris-HCl pH 8.5, 0.2 M MgCl2, 30% PEG4000; 3-fold molar excess of peptide over mVps29. The settings on record: both partners purified.

B1: human DENND4C peptide 1189-1206 (peptide)
peptide: AKVVQREDVETGLDPLSL
notes: also called hDENND4C_(1189-1206); DENND4C PL motif-containing peptide; source: synthetic peptide
For the molecule B1, the binding result is on record as “binds”.
